Patent publication US20200024598A1, “ISOLATED POLY[…] REGION, HOST CELL COMPRISING THE SAME, AND METHOD OF […] GENE IN THE HOST CELL” (priority 2018, published 2020)

Experiments:
Type in all cases: cell-based, Pseudomonas saitens KCTC 13107BP
Ptac-cm^R SF1 strain = experiment: MIC test of chloramphenicol on recombinant SF1 strain (Ptac promoter); settings: Pseudomonas, 48 h, read-out: MIC of Chloramphenicol
Protocol: (§1) A pB-P4381 vector comprising cm^R gene (cat) downstream of the promoter of highly expressed gene Gene_4381, which was selected based on RNA-seq data, was constructed as described in (2). This vector was then introduced into SF1 strain by electroporation. As control groups, a pSF-EX1 vector and a pBBR-122 vector were introduced into separate SF1 strains in the same manner as described above.
(§2) Each of the recombinant SF1 strains was cultured in separate wells of a microplate containing LB medium containing predetermined chloramphenicol, and growth thereof was examined to confirm minimal inhibitory concentrations (MICs). Culturing was performed at 30° C. for 2 days in an LB medium supplemented with 400 μg/ml of chloramphenicol by ½ dilution at each concentration.

P4381-cm^R SF1 strain = experiment: MIC test of chloramphenicol on recombinant SF1 strain (P4381 promoter)
Protocol: as §1, §2

Pcat-cm^R SF1 strain = experiment: MIC test of chloramphenicol on recombinant SF1 strain (Pcat promoter); settings: Pseudomonas, 48 h, LB medium, 30° C., 2 days
Protocol: as §1, §2

cat gene = experiment: cat mRNA level by RT-PCR; settings: SF1 strain
Excerpt: Pcat-cm^R, Ptac-cm^R, and P4381-cm^R cells cultured in (3.1) were lysed to obtain cell lysates, which were then centrifuged to obtain supernatants, respectively. Each supernatant was subjected to RT-PCR using a set of primers of SEQ ID NOS: 13 and 14.
In FIG. 4, the vertical axis represents a ratio when a cycle threshold (CT) value of Pcat promoter is regarded as 1, and Pcat, Ptac, and P4381 on the horizontal axis represent SF1 strains introduced with […], respectively.

cat protein = experiment: SDS-PAGE analysis of cat protein expression in cell lysates; settings: SDS-PAGE of soluble proteins, SF1 strain
Excerpt: Pcat-cm^R, Ptac-cm^R, and P4381-cm^R cells cultured in (3.1) were lysed to obtain cell lysates, from which soluble proteins were isolated using a BuGBusTER® Protein Extraction Reagent, respectively. The isolated proteins were subjected to SDS-PAGE to examine cat expression.
In FIG. 5, the arrow indicates the position of cat protein.

For `O=C(N[C@H](CO)[C@H](O)c1ccc([N+](=O)[O-])cc1)C(Cl)Cl` [Chloramphenicol, chloramphenicol], the MIC (Ptac-cm^R SF1 strain) was > 100 µg/mL, the MIC (P4381-cm^R SF1 strain; Pseudomonas, 48 h, strain P4381-cm^R, LB medium, 30° C., 2 days) was > 200 µg/mL and the MIC (Pcat-cm^R SF1 strain) was > 100 µg/mL.

B1: P4381: promoter polynucleotide comprising SEQ ID NO: 1 isolated from Gene_4381 of Pseudomonas saitens KCTC 13107BP (nucleic acid)
DNA: TAGACCTGACTGCAGAGCGAATTCGGGCCTGATTCAGGGCAAAAATGGCCAGAAACCATTTTTCGCGTAAAAAATATTCATTCGCGAGTGCTTTTTTTCCAAGCCCGTTTAACCCTCAAGCCCCGGAAACCGGGGCTTCGAGCATTTCAGGCAGCAGACCGAAGCTAACATCGCAGCAAACTGTGGTTCAGGGGGGTTCCAAAGCGCACATTTCGACTATGATAGCTCGGTGTGCCCAGTTGGCCTGAGCAGCACAGTACTACTGAAAATATAAGTTTCTTGGAGATACACC
modifications: Synthetic Pseudomonas saitens KCTC 13107BP
With B1 the “cat mRNA level relative to Pcat” value (cat gene; compared with Pcat promoter) was 158 times, the “cat mRNA level relative to Ptac” value (cat gene; compared with Ptac promoter) was 32 times and the “MIC relative to that of existing Pcat and Ptac” value (P4381-cm^R SF1 strain; chloramphenicol MIC, SF1 strain) was “twice or higher”. For the same molecule, the “cat protein expression level compared with Pcat and Ptac” value (cat protein) was “significantly higher”.
